Among the data in PMC9143740 are IC50 of cell viability (CellTiter-Glo, 72 h), PED17 cells (DMG, IL-13Rα2-high) values, retold here.

This experiment deals with Interleukin 13 receptor subunit alpha 2 (IL-13Rα2) (human (endogenous in patient-derived HGG cell lines)) (UniProt Q14627).
Chain of UniProt Q14627 (Q14627 27-380): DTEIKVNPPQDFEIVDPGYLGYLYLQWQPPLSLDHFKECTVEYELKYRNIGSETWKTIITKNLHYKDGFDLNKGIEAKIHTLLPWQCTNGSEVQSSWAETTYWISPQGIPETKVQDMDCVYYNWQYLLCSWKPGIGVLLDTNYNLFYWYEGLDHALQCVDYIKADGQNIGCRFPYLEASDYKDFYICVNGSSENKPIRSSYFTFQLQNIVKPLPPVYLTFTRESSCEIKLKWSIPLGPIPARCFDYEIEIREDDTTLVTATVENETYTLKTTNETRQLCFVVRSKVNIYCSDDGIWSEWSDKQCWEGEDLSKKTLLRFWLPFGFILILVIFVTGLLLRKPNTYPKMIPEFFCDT

Take GB-13 (IL13.E13K-PE4E): the IC50 of cell viability (CellTiter-Glo, 72 h), PED17 cells (DMG, IL-13Rα2-high) is 0.02 ng/mL.
